Reference: US20240209094A1 (PIERRE FABRE MEDICAMENT, published 2024)
Values joined by “and” are separate entries in the source; they are usually repeats but may differ in a detail not shown here. Equal entries are not always repeated.

T1: hVISTA-Fc labelled with d2 (human, UniProt Q9H7M9 33-194, labelled with d2 (HTRF acceptor); site not stated)
T1 construct: It may be the same protein as rhVISTA-Fc of the Biacore assay, with a d2 label; also called VISTA-Fc-d2; not shown: Fc
T1 sequence: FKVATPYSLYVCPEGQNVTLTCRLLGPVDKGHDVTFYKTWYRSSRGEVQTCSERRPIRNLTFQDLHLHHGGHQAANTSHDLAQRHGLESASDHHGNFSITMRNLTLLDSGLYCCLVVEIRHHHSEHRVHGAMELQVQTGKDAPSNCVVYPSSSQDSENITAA

T2: recombinant human (rh) VISTA-His protein (human, UniProt Q9H7M9 33-194)
T2 construct: A soluble His-tagged protein is probably the extracellular domain; also called rhVISTA-TagHis; rhVISTA-his (monomer); not shown: His tag
T2 sequence: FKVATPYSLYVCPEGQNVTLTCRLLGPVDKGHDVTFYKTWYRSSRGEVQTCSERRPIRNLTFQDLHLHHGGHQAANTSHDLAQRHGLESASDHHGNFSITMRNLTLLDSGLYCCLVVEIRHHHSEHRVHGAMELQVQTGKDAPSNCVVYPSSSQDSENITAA


Key:
[1] = molecular target: T1, hVISTA-Fc labelled with d2; assay: HTRF, VISTA-Fc-d2 and PSGL1-His/anti-His-Tb, pH 6; antibody at 10 µg/mL; mean of 3 experiments
[2] = molecular target: T1, hVISTA-Fc labelled with d2; assay: HTRF competition, VISTA-Fc-d2 and PSGL1-His/anti-His-Tb, pH 6
[3] = molecular target: T1, hVISTA-Fc labelled with d2; assay: HTRF, VISTA-Fc-d2 and PSGL1-His/anti-His-Tb, pH 6; antibody at 1.25 µg/mL; mean of 3 experiments
[4] = molecular target: T1, hVISTA-Fc labelled with d2; assay: HTRF, VISTA-Fc-d2 and PSGL1-His/anti-His-Tb, pH 6; antibody at 0.16 µg/mL; mean of 3 experiments
[5] = molecular target: T1, hVISTA-Fc labelled with d2; assay: HTRF, VISTA-Fc-d2 and PSGL1-His/anti-His-Tb, pH 6; antibody at 2.5 µg/mL; mean of 3 experiments
[6] = molecular target: T1, hVISTA-Fc labelled with d2; assay: HTRF, VISTA-Fc-d2 and PSGL1-His/anti-His-Tb, pH 6; antibody at 5 µg/mL; mean of 3 experiments
[7] = molecular target: T1, hVISTA-Fc labelled with d2; assay: HTRF, VISTA-Fc-d2 and PSGL1-His/anti-His-Tb, pH 6; antibody at 0.63 µg/mL; mean of 3 experiments
[8] = molecular target: T1, hVISTA-Fc labelled with d2; assay: HTRF, VISTA-Fc-d2 and PSGL1-His/anti-His-Tb, pH 6; antibody at 0.31 µg/mL; mean of 3 experiments
[9] = molecular target: T2, recombinant human (rh) VISTA-His protein; assay: direct ELISA, rhVISTA-His coated on plate; mean EC50 of n1-n3
Method: (§1) After incubation, the coating solution was removed and plates were blocked by adding 250 μl blocking buffer (0.5% gelatin in 1×PBS) for at least 1 hour at 37° C.

[10] = molecular target: T2, recombinant human (rh) VISTA-His protein; assay: direct ELISA, rhVISTA-His coated on plate; Mean EC50 'Prism' n = 3
Method: as §1

[11] = molecular target: T2, recombinant human (rh) VISTA-His protein; assay: indirect ELISA, rhVISTA-His captured by coated anti-His antibody; experiment n3
Method: as §1

[12] = molecular target: T2, recombinant human (rh) VISTA-His protein; assay: direct ELISA, rhVISTA-His coated on plate; experiment n2
Method: as §1

[13] = molecular target: T2, recombinant human (rh) VISTA-His protein; assay: indirect ELISA, rhVISTA-His captured by coated anti-His antibody; experiment n2
Method: as §1

[14] = molecular target: T2, recombinant human (rh) VISTA-His protein; assay: direct ELISA, rhVISTA-His coated on plate; experiment n1
Method: as §1

[15] = molecular target: T2, recombinant human (rh) VISTA-His protein; assay: indirect ELISA, rhVISTA-His captured by coated anti-His antibody; mean EC50 of n1-n3
Method: as §1

[16] = molecular target: T2, recombinant human (rh) VISTA-His protein; assay: indirect ELISA, rhVISTA-His captured by coated anti-His antibody; experiment n1
Method: as §1

[17] = molecular target: T2, recombinant human (rh) VISTA-His protein; assay: indirect ELISA, rhVISTA-His captured by coated anti-His antibody; Mean EC50 'Prism' n = 3
Method: as §1

[18] = molecular target: T2, recombinant human (rh) VISTA-His protein; assay: direct ELISA, rhVISTA-His coated on plate; experiment n3
Method: as §1

percentage of the specific HTRF signal [1] [%]	IC50 [2] [nM]	percentage of the specific HTRF signal [3] [%]	percentage of the specific HTRF signal [4] [%]	percentage of the specific HTRF signal [5] [%]	percentage of the specific HTRF signal [6] [%]	percentage of the specific HTRF signal [7] [%]	percentage of the specific HTRF signal [8] [%]	EC50 [9]	EC50 [10]	EC50 [11]	EC50 [12]	EC50 [13]	EC50 [14]	EC50 [15]	EC50 [16]	EC50 [17] [nM]	EC50 [18]	Molecule
34	333	68	89	63	50	81	88											anti-VISTA R&D Systems #71261 (antibody)
	2.3							1.02 nM	1.02 nM	0.0465 nM	1.08 nM	0.0447 nM	1.04 nM	0.0471 nM	0.0501 nM	0.0471	0.928 nM	anti-VISTA antibody Ab1 (N55D substitution in the CDR-H2) (antibody, human IgG1, kappa, V domains shown, N-terminal glutamine mainly in the pyroglutamic acid form; N-glycan at Asn298; most of the C-terminal lysines clipped, also called anti-VISTA Ab1) VH: QVQLVQSGAEVKKPGASVKISCKASGFSFTGYTMNWVRQAPGQGLEWIGLISPYDGGTSYAQKFQGRATLTVDTSTSTAYMELSSLRSEDTAVYYCARRAYGYAMDYWGQGTLVTVSS VL: EIVLTQSPATLSLSPGERVTMSCSASSSVSYMYWYQQKPGQAPRLLIYDTSNLASGVPARFSGSGSGTDYTLTISSMEPEDFAVYYCQQWSSYPFTFGQGTKLEIKR
								0.671 nM and 0.961 nM	0.959 nM and 0.671 nM	0.0386 nM and 0.038 nM	0.728 nM and 0.877 nM	0.0342 nM and 0.0418 nM	0.641 nM and 1.1 nM	0.0396 nM and 0.0393 nM	0.0458 nM and 0.0382 nM	0.0393	0.645 nM and 0.901 nM	monoclonal antibody Ab3 (unmutated antibody) (antibody, human IgG1, kappa, V domains shown, partly deamidated at N55 (mixture of N55/N55, N55/D55 and D55/D55 charge variants), The batch is kept in the printed label of each row; also called Ab 3 batch 1; Ab 3 batch 2) VH: QVQLVQSGAEVKKPGASVKISCKASGFSFTGYTMNWVRQAPGQGLEWIGLISPYNGGTSYAQKFQGRATLTVDTSTSTAYMELSSLRSEDTAVYYCARRAYGYAMDYWGQGTLVTVSS VL: EIVLTQSPATLSLSPGERVTMSCSASSSVSYMYWYQQKPGQAPRLLIYDTSNLASGVPARFSGSGSGTDYTLTISSMEPEDFAVYYCQQWSSYPFTFGQGTKLEIKR
